Four molecules from patent US20240116985A1 (published 2024) can be followed below.

The target in assay [1] is T1, beta-catenin in DLD1 TCF/LEF luciferase reporter cells (UniProt P35222 1-781).
T1 sequence (looked up): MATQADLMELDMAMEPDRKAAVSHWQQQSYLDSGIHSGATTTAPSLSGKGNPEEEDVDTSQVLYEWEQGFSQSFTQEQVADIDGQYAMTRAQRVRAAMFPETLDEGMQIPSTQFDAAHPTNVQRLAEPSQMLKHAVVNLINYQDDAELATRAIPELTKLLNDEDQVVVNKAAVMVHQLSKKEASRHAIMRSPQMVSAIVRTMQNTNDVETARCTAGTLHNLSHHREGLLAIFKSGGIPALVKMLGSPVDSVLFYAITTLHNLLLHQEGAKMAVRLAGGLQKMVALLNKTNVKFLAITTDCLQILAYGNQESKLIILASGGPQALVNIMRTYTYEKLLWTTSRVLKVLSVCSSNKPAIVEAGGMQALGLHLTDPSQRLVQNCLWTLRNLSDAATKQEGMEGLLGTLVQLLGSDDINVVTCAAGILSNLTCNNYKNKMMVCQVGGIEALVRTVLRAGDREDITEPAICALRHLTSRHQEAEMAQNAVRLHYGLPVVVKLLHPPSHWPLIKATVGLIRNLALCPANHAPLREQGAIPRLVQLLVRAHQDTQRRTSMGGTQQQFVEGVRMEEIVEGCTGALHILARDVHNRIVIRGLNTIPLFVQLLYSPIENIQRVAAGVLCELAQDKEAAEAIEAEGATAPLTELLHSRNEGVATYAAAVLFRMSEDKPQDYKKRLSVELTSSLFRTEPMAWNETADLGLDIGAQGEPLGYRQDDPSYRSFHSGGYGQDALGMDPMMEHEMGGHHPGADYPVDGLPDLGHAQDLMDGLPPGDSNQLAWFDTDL
In words: cell-based or functional assay.

The target of assay [2] is T2, B-cat-Halo (beta-catenin HaloTag construct transfected into HEK293 cells) (UniProt P35222 1-781).
T2 sequence (looked up): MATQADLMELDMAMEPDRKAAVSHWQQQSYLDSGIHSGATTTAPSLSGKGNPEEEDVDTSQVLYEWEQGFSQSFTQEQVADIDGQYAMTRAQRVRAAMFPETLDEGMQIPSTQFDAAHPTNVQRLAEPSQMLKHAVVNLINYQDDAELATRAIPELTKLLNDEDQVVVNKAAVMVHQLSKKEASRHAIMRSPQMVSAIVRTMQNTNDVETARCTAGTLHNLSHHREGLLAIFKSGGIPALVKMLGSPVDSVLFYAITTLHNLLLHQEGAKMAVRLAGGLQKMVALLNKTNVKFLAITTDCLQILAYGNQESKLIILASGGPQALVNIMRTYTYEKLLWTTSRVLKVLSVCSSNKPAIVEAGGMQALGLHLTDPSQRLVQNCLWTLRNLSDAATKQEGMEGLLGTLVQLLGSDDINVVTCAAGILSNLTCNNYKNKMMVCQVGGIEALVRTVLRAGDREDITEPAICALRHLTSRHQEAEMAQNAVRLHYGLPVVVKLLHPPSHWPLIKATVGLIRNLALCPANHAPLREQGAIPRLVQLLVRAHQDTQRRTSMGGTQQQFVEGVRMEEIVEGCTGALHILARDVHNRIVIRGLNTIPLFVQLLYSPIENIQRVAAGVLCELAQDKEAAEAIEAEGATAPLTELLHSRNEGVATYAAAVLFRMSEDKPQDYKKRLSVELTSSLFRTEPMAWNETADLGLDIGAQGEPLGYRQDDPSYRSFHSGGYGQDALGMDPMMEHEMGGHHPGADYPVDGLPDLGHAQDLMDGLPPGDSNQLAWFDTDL
In words: cell-based or functional assay.

Assay [3] deals with T3, full-length beta-Catenin (Uniprot ID P35222) (Homo sapiens (Human), UniProt P35222 2-781).
T3 construct: The fluorescence polarization protocol says only 'full-length'; also called bCat; B-Catenin
T3 sequence: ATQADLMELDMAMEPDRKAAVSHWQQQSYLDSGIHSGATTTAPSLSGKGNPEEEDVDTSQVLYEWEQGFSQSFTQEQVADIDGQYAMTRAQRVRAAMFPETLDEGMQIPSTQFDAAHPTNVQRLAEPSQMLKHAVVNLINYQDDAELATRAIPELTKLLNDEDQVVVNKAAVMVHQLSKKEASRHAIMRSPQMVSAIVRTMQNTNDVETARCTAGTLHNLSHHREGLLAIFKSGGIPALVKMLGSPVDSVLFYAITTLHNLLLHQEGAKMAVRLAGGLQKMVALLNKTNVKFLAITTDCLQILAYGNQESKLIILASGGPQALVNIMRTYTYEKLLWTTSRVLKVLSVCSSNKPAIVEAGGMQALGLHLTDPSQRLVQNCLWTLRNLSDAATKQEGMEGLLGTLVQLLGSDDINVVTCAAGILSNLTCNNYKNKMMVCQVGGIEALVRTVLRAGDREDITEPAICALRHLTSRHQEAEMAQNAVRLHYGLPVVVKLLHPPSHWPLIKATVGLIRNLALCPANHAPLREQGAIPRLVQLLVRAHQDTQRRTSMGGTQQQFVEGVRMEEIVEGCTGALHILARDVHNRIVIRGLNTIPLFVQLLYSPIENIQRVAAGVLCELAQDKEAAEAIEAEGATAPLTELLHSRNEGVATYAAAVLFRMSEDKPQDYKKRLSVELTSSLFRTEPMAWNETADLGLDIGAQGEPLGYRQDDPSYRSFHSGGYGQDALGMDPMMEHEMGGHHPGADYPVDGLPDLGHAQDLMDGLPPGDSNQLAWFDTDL
Kind of assay: fluorescence polarization competition; full-length beta-catenin + 5FAM-TCF4(10-53) probe; peptide titrated. How it is done:
(§1) The plate was incubated protected from light for 60 minutes at 20° C. prior to read. Reads were performed on a CLARIOstar plate reader (BMG Labtech) in duplicate, and data were fitted to a 1:1 binding model with hill slope using an in-house script. All provided concentrations are final concentrations.
A general note: Polarisation of emitted light reports the rotation of a fluorescent probe.

Assay [4] addresses T4, full-length beta-Catenin (Uniprot ID P35222) (Homo sapiens (Human), UniProt P35222 2-781).
T4 construct: The FP protocol says 'full-length beta-Catenin (Uniprot ID P35222)'; also called bCat; B-Catenin
T4 sequence: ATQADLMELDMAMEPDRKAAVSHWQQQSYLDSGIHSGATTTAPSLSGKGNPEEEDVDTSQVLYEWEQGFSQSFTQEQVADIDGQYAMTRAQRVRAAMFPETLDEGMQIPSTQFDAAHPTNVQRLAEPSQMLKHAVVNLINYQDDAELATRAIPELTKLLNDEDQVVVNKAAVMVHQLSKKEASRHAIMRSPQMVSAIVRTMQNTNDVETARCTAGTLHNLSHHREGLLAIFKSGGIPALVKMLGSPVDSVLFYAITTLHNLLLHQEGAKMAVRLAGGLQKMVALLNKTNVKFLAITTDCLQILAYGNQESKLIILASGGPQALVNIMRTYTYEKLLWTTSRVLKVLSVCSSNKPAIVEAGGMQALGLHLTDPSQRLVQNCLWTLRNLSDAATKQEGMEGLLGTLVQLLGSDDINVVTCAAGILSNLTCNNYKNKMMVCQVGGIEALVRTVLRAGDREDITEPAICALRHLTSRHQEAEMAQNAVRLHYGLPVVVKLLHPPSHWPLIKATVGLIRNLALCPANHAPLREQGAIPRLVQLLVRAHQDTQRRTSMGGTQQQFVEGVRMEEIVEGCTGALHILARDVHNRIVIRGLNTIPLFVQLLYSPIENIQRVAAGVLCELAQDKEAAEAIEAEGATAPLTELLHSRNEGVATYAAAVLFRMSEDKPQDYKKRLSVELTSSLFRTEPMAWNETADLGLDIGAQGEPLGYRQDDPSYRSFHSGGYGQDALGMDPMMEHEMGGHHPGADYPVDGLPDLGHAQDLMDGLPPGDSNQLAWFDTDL
Kind of assay: fluorescence polarization competition; full-length beta-catenin + 5FAM-TCF4 10-53 probe. How it is done: as §1

Starred links: 1 amine or outer side, 2 acyl side, 3 side chain; linkers in the order of their positions; H or OH if unused. Positions of bridges follow the written chain, without caps; N, C: chain ends. Non-standard residues stand in square brackets, D forms with d. Primed or numbered codes have the meaning given here. *: point of attachment. B5(10) = 2-amino-2-(pent-4-en-1-yl)hept-6-enoic acid, bis(4-pentenyl)glycine, stitching residue bearing both staples, C=CCCCC(CCCC=C)(N[*:1])C(=O)[*:2]; B5(4) = 2,2-bis(4-pentenyl)glycine = 2-amino-2-(pent-4-en-1-yl)hept-6-enoic acid (stitching residue), C=CCCCC(CCCC=C)(N[*:1])C(=O)[*:2]; B5(5) = 2,2-bis(4-pentenyl)glycine, 2-amino-2-(pent-4-en-1-yl)hept-6-enoic acid (stitching residue), C=CCCCC(CCCC=C)(N[*:1])C(=O)[*:2]; PyrS2 = (S)-3-amino-1-((pent-4-en-1-yloxy)carbonyl)pyrrolidine-3-carboxylic acid, C=CCCCOC(=O)N1CC[C@@](N[*:1])(C(=O)[*:2])C1; Phe(3-COOH) = N[C@@H](Cc1cccc(C(=O)O)c1)C(=O)O; Bta = N[C@@H](Cc1csc2ccccc12)C(=O)O; αAllylPro = C=CC[C@@]1(C(=O)O)CCCN1; tBuAla = CC(C)(C)C[C@H](N)C(=O)O; 3Thi = N[C@@H](Cc1ccsc1)C(=O)O; S8 = C=CCCCCCC[C@](C)(N)C(=O)O; PyrS2(4) = not defined here; Ms = CS(=O)(=O)*

B1: I-1918 (peptide)
peptide: Ac-[αAllylPro]D[tBuAla][B5(4)]D[Phe(3-COOH)]QAFL[PyrS2(4)][3Thi][Bta]A-NH2
modifications: staple 1-4, 4-11; not fully specified; printed as Ac-PL3-Asp-Npg-B5-Asp-3COOHF-Gln-Ala-Phe-Leu-PyrS2-3Thi-BztA-Ala-NH2; reading uncertain
With B1, the “DLD1 4% Abs IC50” value in assay [1] stood at 6.5 µM. The “NanoBRET Abs IC50” value in assay [2] came to 4 µM.

B2: I-710 (peptide)
peptide: Ms-[αAllylPro]DI[B5(5)]DEAAFQ[S8]F[Bta]Q-NH2
modifications: staple 1-4, 4-11
notes: Stapled peptide composition; also called MeSO2-PL3-Asp-Ile-B5-Asp-Glu-Ala-Ala-Phe-Gln-S8-Phe-BztA-Gln-NH2
In the case of B2, the EC50 in assay [3] was 0.073 µM.

B3: I-1295 (peptide)
peptide: Ac-[αAllylPro]DA[B5(10)]NTAAFL[PyrS2]F[Bta]Q-NH2
modifications: staple 1-4, 4-11; not fully specified; printed as Ac-PL3-Asp-Ala-B5-Asn-Thr-Ala-Ala-Phe-Leu-PyrS2-Phe-BztA-Gln-NH2
notes: earlier eluting HPLC peak (staple isomer composition); also called Ac-PL3-Asp-Ala-B5-Asn-Thr-Ala-Ala-Phe-Leu-PyrS2-Phe-BztA-Gln-NH2
In the case of B3, in assay [4], the IC50 was 10 µM.

B4: I-1296 (peptide)
peptide: Ac-[αAllylPro]DA[B5(10)]NTAAFL[PyrS2]F[Bta]Q-NH2
modifications: staple 1-4, 4-11; not fully specified; printed as Ac-PL3-Asp-Ala-B5-Asn-Thr-Ala-Ala-Phe-Leu-PyrS2-Phe-BztA-Gln-NH2
notes: later eluting HPLC peak (staple isomer composition); also called Ac-PL3-Asp-Ala-B5-Asn-Thr-Ala-Ala-Phe-Leu-PyrS2-Phe-BztA-Gln-NH2
Turning to B4, in assay [4], the IC50 was determined as 3.79 µM.

One may read the EC50 as the concentration giving half of the maximal effect. The term IC50 denotes the concentration at which inhibition is half-maximal.
